Data on 1 substance can be found in article PMC12720779.

Test [1] deals with T2Q A34F variant of GB1. The test can be described thus: NMR titration; 19F NMR of 3-fluorotyrosine-labelled A34F, serial dilution 500 to 15.6 uM; dimer to monomers; 20 mM phosphate pH 7.0, 10% D2O, 298 K; with hyaluronic acid (50 kDa) as crowder.
Test [2] addresses T2Q A34F variant of GB1. The experiment in a line: NMR titration; 19F NMR of 3-fluorotyrosine-labelled A34F, serial dilution 500 to 15.6 uM; dimer to monomers; 20 mM phosphate pH 7.0, 10% D2O, 298 K; with 100 g/L heparin (15 kDa) as crowder.
For test [3], the target named is T2Q A34F variant of GB1. The test can be described thus: NMR titration; 19F NMR of 3-fluorotyrosine-labelled A34F, serial dilution 500 to 15.6 uM; dimer to monomers; 20 mM phosphate pH 7.0, 10% D2O, 298 K; with 100 g/L mucin (porcine stomach) as crowder.
Test [4] deals with T2Q A34F variant of GB1. The test can be described thus: NMR titration; 19F NMR of 3-fluorotyrosine-labelled A34F, serial dilution 500 to 15.6 uM; dimer to monomers; 20 mM phosphate pH 7.0, 10% D2O, 298 K; with ficoll (70 kDa) as crowder.
In test [5] the target is T2Q A34F variant of GB1. The test can be described thus: NMR titration; 19F NMR of 3-fluorotyrosine-labelled A34F, serial dilution 500 to 15.6 uM, Y33 monomer and dimer peak integrals; dimer to monomers; 20 mM phosphate pH 7.0, 10% D2O, 298 K; buffer alone.

With “T2Q A34F variant of GB1 (domain or fragment)”, the Kd (as a rule, a measure of binding affinity in units of concentration) in test [1] came out at 8 µM; in test [2] it was 12 µM; in test [3], 26 µM; in test [4], 42 µM; in test [5] it was 57 µM. Moreover, the stoichiometry N (commonly a count of units in the complex or per binding partner) in test [5] was determined as 2.
